By EC50 is commonly meant the concentration that produces a half-maximal response.

The target in assay [1] is human BDCA2 (human) (UniProt Q8WTT0). In words: FACS on CHOK1-hBDCA2 cells; EC50 table under the plot, unit from the x axis (nM); fit of a flat control curve.
Assay [2] addresses cynomolgus BDCA2 (cynomolgus monkey). In words: FACS on 293F-cynoBDCA2 cells; EC50 table under the plot, unit from the x axis (nM); fit of a flat control curve [continued) e.].
Assay [3] addresses human BDCA2 (human) (UniProt Q8WTT0). In words: FACS on CHOK1-hBDCA2 cells; EC50 table under the plot, unit from the x axis (nM); fit of a flat control curve [continued) e.].

human BDCA2 (human), sequence (Q8WTT0 whole entry): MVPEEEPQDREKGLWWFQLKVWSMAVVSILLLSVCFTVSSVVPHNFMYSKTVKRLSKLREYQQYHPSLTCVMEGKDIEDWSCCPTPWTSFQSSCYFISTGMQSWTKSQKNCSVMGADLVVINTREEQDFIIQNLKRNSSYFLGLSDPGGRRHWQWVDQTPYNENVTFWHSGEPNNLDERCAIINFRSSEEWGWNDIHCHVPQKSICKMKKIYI
cynomolgus BDCA2 (cynomolgus monkey), sequence (chain, as listed by the source): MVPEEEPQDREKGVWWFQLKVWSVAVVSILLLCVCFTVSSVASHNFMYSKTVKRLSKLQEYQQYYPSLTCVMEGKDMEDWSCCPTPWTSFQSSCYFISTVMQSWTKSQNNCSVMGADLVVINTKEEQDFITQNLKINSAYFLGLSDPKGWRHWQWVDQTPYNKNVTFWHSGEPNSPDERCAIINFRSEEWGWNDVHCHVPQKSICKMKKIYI

For the substance hIgG1 (antibody), the concentration for a half-maximal effect (EC50) in the assay with human BDCA2 (human) [1] was 61.3 nM; in assay [2], 21.8 nM.
Consider mIgG1 (antibody), for which the EC50 with human BDCA2 (human) [3] turned out to be 176000 nM; in assay [2], 20.6 nM.
